Experimental findings from PMC2936295, “Integrative inference of gene-regulatory networks in Escherichia coli using information theoretic concepts and sequence analysis” are described below.

The target in data set [1] is T1, PdhR-His (Escherichia coli K-12 LJ110, UniProt P0ACL9 1-254). Kind of data set: EMSA; no pyruvate; 18-46 pmol PdhR; EMSA, binding buffer and conditions as in ref 17 (not given) plus 0.1 mg/ml herring sperm DNA; 0.1 pmol probe (0.025 pmol for lipA); 6% polyacrylamide gel; pH. To be noted: protein: recombinant; tags: C-terminal Penta-His; chain copies: 2; label: 5' DY782 (strand 1); 5' DY682 (strand 2); as printed, strand 2 has 3 extra nt (CAG opposite a gap in strand 1), possible misprint; blunt ends. A general note: In EMSA bound probe runs differently from free probe, usually more slowly.

Data set [2] deals with T1, PdhR-His. Kind of data set: EMSA; no pyruvate; 9-37 pmol PdhR; EMSA, binding buffer and conditions as in ref 17 (not given) plus 0.1 mg/ml herring sperm DNA; 0.1 pmol probe (0.025 pmol for lipA); 6% polyacrylamide gel; pH. The conditions noted are these: protein: recombinant; tags: C-terminal Penta-His; chain copies: 2; label: 5' DY682 (strand 1); 5' DY782 (strand 2); blunt.

T1 sequence (P0ACL9 whole entry): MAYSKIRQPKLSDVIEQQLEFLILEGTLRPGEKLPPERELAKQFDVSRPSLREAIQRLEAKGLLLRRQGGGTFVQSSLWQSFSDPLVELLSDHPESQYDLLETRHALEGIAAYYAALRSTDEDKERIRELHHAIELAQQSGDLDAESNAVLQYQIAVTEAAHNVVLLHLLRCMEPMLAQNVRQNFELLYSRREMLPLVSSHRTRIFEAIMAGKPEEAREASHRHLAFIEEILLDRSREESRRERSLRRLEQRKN

B1: Mlc-binding site (ptsG) (dsDNA)
DNA 1: TTGGCAAATTATTTTACTCTGTGTAATAAATAAAGGGCG
DNA 2: CGCCCTTTATTTATTACACAGAGTAAAATAATTCAGTGCCAA
For the molecule B1, the binding result with PdhR-His [1] is “no binding”.

B2: PdhR-binding site of pdhR-aceEF-lpd operon (dsDNA)
DNA 1: GCCGAAGTCAATTGGTCTTACCAATTTCATGTCTGTG
DNA 2: CACAGACATGAAATTGGTAAGACCAATTGACTTCGGC
For B2, in the data set with PdhR-His [2], the binding result was “binds”.
